Among the data in patent publication US20240067734A1 (Hoffmann-La Roche, published 2024) are EC50 and OD max values, retold here.

T1: his avi huNKG2D ECD (human, biotinylated at the avi-tag (in the ELISA))
T1 construct: Human NKG2D ECD with N-terminal H6-avi tags, forms non-covalent dimers; also called recombinant human NKG2D
T1 chain: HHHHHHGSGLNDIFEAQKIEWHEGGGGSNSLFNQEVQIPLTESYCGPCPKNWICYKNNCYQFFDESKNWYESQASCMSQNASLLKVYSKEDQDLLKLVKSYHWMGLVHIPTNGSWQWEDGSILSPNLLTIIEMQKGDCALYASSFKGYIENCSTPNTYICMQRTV

T2: recombinant biotinylated human NKG2D (Example 5) (human, UniProt P26718 73-216, biotinylated)
T2 sequence: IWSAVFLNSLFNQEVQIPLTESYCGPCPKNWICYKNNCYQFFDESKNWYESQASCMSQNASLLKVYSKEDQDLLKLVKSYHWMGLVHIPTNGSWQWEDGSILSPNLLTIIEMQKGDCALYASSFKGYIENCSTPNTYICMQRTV

T3: human NKG2D expressed on cells (human, UniProt P26718 1-216)
T3 construct: the cell type is named under assay; also called NKG2D on NK92 cells; HEK293T human NKG2D
T3 chain: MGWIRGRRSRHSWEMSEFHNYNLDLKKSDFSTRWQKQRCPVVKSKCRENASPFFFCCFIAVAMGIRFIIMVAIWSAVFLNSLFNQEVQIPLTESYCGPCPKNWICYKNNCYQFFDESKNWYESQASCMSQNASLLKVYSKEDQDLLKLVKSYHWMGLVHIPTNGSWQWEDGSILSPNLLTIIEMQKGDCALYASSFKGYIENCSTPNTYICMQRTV

B1: anti-NKG2D antibody clone 320 (antibody, V domains shown)
VH: EVQLLESGGGLVQPGGSLRLSCATSGFTFSDYAMSWVRQAPGKGLEWVSYNSFSVGSTDYADSVKGRFTISRDNSKNTLYLQMNSLRAEDTAVYYCSKHSGNYYTGPFHYWGQGTLVTVSS
VL: DIQLTQSPSFLSASVGDRVTITCRASQGISSYLAWYQQKPGKAPKLLIYAASSLESGVPSRFSGSGSGTDFTLTISSLQPEDFATYYCQQSYSTPITFGQGTRLEIK
notes: From transgenic rabbits; also called 320 IgG
B2: anti-NKG2D antibody clone 013 (antibody, V domains shown)
VH: EQSGGGAGGGLVKPGGSLELCCKASGFDFSIYWMSWVRQSPGKGLEWIGRIYGGSSDYTAYASWVNGRFTLSRDIDQSTGCLQLNSLTAADTAMYYCVRLNPSFSRSFDYWGQGTLVTVSS
VL: DIQMTQSPSSVSASVGDRVTITCRASQGIFSWLVWYQQKPGKAPELLMYGASTLQSGVPSRFSGSGSGTDFTLTISSLQPEDFATYYCQQGYSTPYTFGQGTKVEIK
notes: From transgenic rabbits
B3: anti-NKG2D antibody clone 395 (antibody, V domains shown)
VH: QEQLEQSGGGLVTPGGSLKLCCTASGFDFNTFWMTWVRQAPGKGLEWIGCIHGGSGSRDYASWVNGRFTLSRDIDQSTACLQVNSLTAADTAMYYCARPGYRSWSKTFDLWGQGTMVTVSS
VL: DIQMTQSPSSLSASVGDRVTITCRASQDISGALNWYQQKPGKAPNLLIYAASSLQSGVPSRFSGSGSGTDYTLTISSLQPEDFATYYCQQANSFPLTFGGGTKVEIK
notes: From transgenic rabbits; rabbit VH, human VL
B4: anti-NKG2D antibody clone 230 (antibody, V domains shown)
VH: QQLEQSGGGLVKPGGSLELCCIASGFDFSTYWMTWVRQAPGKGLEWIGCIHGGGSGTTSYASWVNGRFTLSRDIDQSTGCLQLTSLTAADTAMYYCARPGYRSWSKTFDLWGQGTMVTVSS
VL: B3 VL with R24Q, S26N, G31N, N45K, Y71F, T85A, N92A
notes: From transgenic rabbits
B5: anti-NKG2D antibody clone 001 (antibody, V domains shown)
VH: B4 VH with K12T, E18K, A23G, S29N, G54S, T57S, S59Y, L83V, T84N
VL: B3 VL with G31E, A32S, N45K
notes: From transgenic rabbits
B6: anti-NKG2D antibody clone 296 (antibody, V domains shown)
VH: EVQLLESGGGLVQPGGSLRLSCAASGFTFSSYAMSWVRQAPGKGLEWVSAIGIGGGGTYYADSVKGRFTISRDNSKNTLYLQMNSLRAEDTAVYHCAKGASFDFINFFPYWGQGTLVTVSS
VL: B3 VL with D28G, G31N, A32D, N34A, N45K, Y71F, A91T, N92Y, F94T
notes: From transgenic rabbits
B7: anti-NKG2D antibody clone 018 (antibody, V domains shown)
VH: QQLEQSGGGLVTPGGSLKVCCKASGFDFTTYWMTWVRQAPEKGLEWIGCIHGGDSGATYYANWVNGRFTLSRDIDQSTGCLQLNSLTAADTAMYYCARPGYPSWSKTFDLWGQGTMVTVSS
VL: B3 VL with R24Q, G31N, N45K, S53T, Y71F, Q90H, A91S
notes: From transgenic rabbits
B8: anti-NKG2D antibody 13C6 (IgG) (antibody, V domains shown)
VH: EVQLVQSGAEVKKPGESLKISCKGSGYSFTSYWIGWVRQMPGKGLEWMGIIYPGDSDTRYSPSFQGQVTISADKSISTAYLQWSSLKASDTAMYYCARLYPVGVYFDYWGQGTLVTVSS
VL: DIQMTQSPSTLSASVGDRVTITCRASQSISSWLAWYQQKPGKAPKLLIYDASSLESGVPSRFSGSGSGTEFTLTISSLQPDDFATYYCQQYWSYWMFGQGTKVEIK
notes: also called clone 13C6
B9: anti-NKG2D antibody 5C5 (IgG) (antibody, V domains shown)
VH: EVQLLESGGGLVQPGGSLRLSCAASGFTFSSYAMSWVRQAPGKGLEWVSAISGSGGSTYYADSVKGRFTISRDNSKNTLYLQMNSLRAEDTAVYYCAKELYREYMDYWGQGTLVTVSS
VL: SSELTQDPAVSVALGQTVRITCQGDSLRSYYASWYQQKPGQAPVLVIYGKNNRPSGIPDRFSGSSSGNTASLTITGAQAEDEADYYCNSRDSFSIHQNVFGGGTKLTVL
notes: also called clone 5C5

Residue numbers refer to the chain shown, from its start.

T4 sequence (chain, as listed by the source limits assumed): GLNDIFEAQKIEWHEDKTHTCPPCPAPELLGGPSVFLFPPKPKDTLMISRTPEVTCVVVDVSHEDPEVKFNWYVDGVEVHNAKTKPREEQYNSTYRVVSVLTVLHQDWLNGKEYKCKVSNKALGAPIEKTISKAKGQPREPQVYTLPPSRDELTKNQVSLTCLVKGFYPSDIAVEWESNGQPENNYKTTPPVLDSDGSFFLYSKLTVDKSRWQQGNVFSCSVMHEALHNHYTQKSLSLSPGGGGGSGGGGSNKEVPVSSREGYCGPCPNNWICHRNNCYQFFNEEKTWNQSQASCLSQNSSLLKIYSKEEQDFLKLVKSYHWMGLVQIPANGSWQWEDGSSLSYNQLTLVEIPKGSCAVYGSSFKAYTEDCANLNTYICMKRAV

The first assay addresses T1, his avi huNKG2D ECD. As to the kind of experiment: ELISA; biotinylated antigen on streptavidin plate. The method, then:
(§1) Nunc streptavidin coated plates (MicroCoat, #11974998001) were coated with 25 μl/well biotinylated his avi huNKG2D ECD (SEQ ID NO: 93) at a concentration of 0.5 μg/ml and incubated at room temperature (RT) for 1 hour. After washing with 3×90 μl/well PBST-buffer (10×PBS, Roche #11666789001+0.1% TWEEN® (polysorbate) 20), 25 μl anti-NKG2D antibodies were added in 1:3 dilutions starting at a concentration of 3 μg/ml or alternatively with a 1:30 dilution of the original sample and incubated 1 h at RT. After washing (3×90 μl/well PBST-buffer), 25 μl/well anti hu kappa chain HRP (horseradish peroxidase)-conjugate (Millipore, #AP502P, 1:2000) was added and incubated at RT for 1 h. After washing (3×90 μl/well PBST-buffer) 25 μl/well TMB (3,3′,5,5′-tetramethylbenzidine) substrate (Roche, #11835033001) was added.
Regarding B1, the concentration for a half-maximal effect (EC50) worked out at 1.4 nM and the OD max was 2.4 OD.

With B2, the response was half-maximal at 2 nM (EC50) and the OD max is 2.5 OD.

Molecule B3 returned an OD max of 2.4 OD.

Regarding B4, the OD max worked out at 2.4 OD.

B5 returned an EC50 of 0.8 nM and an OD max of 2.5 OD.

Regarding B6, the OD max is 2.1 OD.

Molecule B7 returned an EC50 of 1.1 nM and an OD max of 2.3 OD.

Another assay addresses T2, recombinant biotinylated human NKG2D …. In words: competition ELISA; NKG2D preincubated with antibody, MIC-B coated; EC50 estimated if no full plateau. The method, then:
After washing with 3×90 μl/well PBST-buffer (10×PBS (Roche, #11666789001)+0,1% TWEEN® (polysorbate) 20), each well was incubated with 90 μl blocking buffer (10×PBS (Roche, #11666789001)+2% Bovine Serum Albumin Fraction V, fatty acid free (Roche, #10735086001)+0.05% TWEEN® (polysorbate) 20) for 1 h at RT. […] After washing (3×90 μl/well PBST-buffer), 25 μl/well of the NKG2D-antibody mixtures were transferred to the assay plate and incubated for 1 h at RT. After washing (3×90 μl/well PBST-buffer), 25 μl/well Poly-HRP40-Streptavidin (Fitzgerald, #65R-S104PHRPx) was added in a 1:2000 dilution and incubated for 1 h at RT. After an additional washing step (3×90 μl/well PBST-buffer), 25 μl TMB substrate (Roche, #11835033001) was added to each well. Measurements were performed at OD 370/492 nm.
Thus, antibodies with such a profile are non-inhibitory regarding the NKG2D: MIC-B interaction. The other 8 antibodies inhibit the binding of NKG2D to its ligand MIC-B with differing potencies.
Consider B1, for which the half-maximal effective concentration (EC50) is 0.067 µg/mL.

B8: the EC50 was 0.111 µg/mL.

As to B3, the EC50 is 1.64 µg/mL.

B4: the EC50 was 1.06 µg/mL.

B5: the EC50 is 0.56 µg/mL.

As to B6, the half-maximal effective concentration (EC50) is 0.02 µg/mL.

For the molecule B7, the concentration for a half-maximal effect (EC50) is 0.332 µg/mL.

Take B9: the concentration for a half-maximal effect (EC50) is 0.717 µg/mL.

Another assay addresses T4, di muNKG2D ECD Fc avi (murine, biotinylated at the avi-tag).
T4 construct: Dimeric fusion of murine NKG2D ECD to the C-terminus of an avi-tagged human IgG1 Fc; also called recombinant murine NKG2D
As to the kind of experiment: ELISA; biotinylated antigen on streptavidin plate. The method, then:
as §1
Nunc streptavidin coated plates (MicroCoat, #11974998001) were coated with 25 μl/well biotinylated di muNKG2D ECD Fc avi (SEQ ID NO: 98) at a concentration of 1 μg/ml and incubated at room temperature (RT) for 1 hour. The assay was performed as described above for human NKG2D.
(In general: An ELISA detects its analyte on a solid surface through an enzyme-linked reagent.)
B1 displayed an OD max of 0.1 OD.

Regarding B2, the OD max amounted to 0.4 OD.

Consider B3, for which the OD max is 0.3 OD.

In turn, B4 returned an OD max of 0.3 OD.

B6: the OD max came to 0.3 OD.

On to B7, for which the OD max was 0.1 OD.

In a further assay the target is T3, human NKG2D expressed on cells. In words: flow cytometry; NK92 cells, Zenon-labelled IgG. The method, then:
For the EC₅₀ determination of binding to NK-92 cells, the antibodies were pre-labeled with a ZENON™ Human IgG Labeling Kit (Thermo Fisher Scientific). […] Cells were washed twice with FACS buffer (2.5% FCS in PBS) and resuspended in 70 μL buffer. Fluorescence was measured using a BD FACS Canto device and EC₅₀ was determined (Table 7).
In the case of B1, the midpoint of the response, the EC50, lay at 0.734 µg/mL.

For B8, the EC50 turned out to be 0.058 µg/mL.

B3 yielded a concentration giving a half-maximal response (EC50) of 0.203 µg/mL.

B4 returned a concentration giving a half-maximal response (EC50) of 0.988 µg/mL.

For B5, the 50% effective concentration (EC50) came out at 0.729 µg/mL.

In the case of B6, the EC50 came out at 0.031 µg/mL.

B7: the concentration giving a half-maximal response (EC50) stood at 0.758 µg/mL.

The next assay shares this target. In words: cell ELISA; HEK293T expressing human NKG2D and DAP10. The method, then:
25 μl/well of HEK293T cells recombinantly expressing full-length human NKG2D and DAP10 (15000 cells/well) or unmodified HEK293T were seeded into 384-well poly-D-lysine plates (Corning, #356662) and incubated overnight at 37° C. in cell culture medium (Gibco, #42430-25+10% FCS (PAN, #P30-2006)+1 μg/ml puromycin+1× penicillin/streptomycin (Roche, #11074440001, 500×)). The next day after removal of medium, 25 μl anti-NKG2D antibodies were added in 1:3 dilutions starting at a concentration of 3 μg/ml or alternatively with a 1:20 dilution of the original sample and incubated for 2 h at 4° C. After washing (1×90 μl in PBST) cells were fixed by addition of 30 μl/well glutaraldehyde to a final concentration of 0.05% (Sigma, #G5882), 10 min at room temperature. After washing (2×90 μl/well PBST-buffer), 25 μl/well anti hu kappa POD (Millipore, #AP502P, 1:2000) was added and incubated at RT for 1 h. After washing (3×90 μl/well with PBST-buffer) 25 μl/well TMB substrate (Roche, #11835033001) was added and incubated for 6-10 min. Measurement were performed on a Tecan Safire 2 instrument at OD 370/492 nm.
All antibodies bound specifically and in a dose-dependent manner to HEK293T cells that recombinantly expressed full-length human NKG2D and DAP10, except for the weak binders clone 013 and 014 for which binding could not be detected in this assay. None of these antibodies bound to non-transfected HEK293T reference cells.
B1 displayed an OD max of 1 OD.

Take B3: the OD max was determined as 0.8 OD.

Molecule B4 registered an OD max of 0.7 OD.

With B5, a half-maximal response (EC50) required 2.2 nM and the OD max is 1 OD.

The molecule B6 registered an OD max of 0.5 OD.

The molecule B7 gave an EC50 of 1.9 nM and an OD max of 0.8 OD.

The term EC50 denotes the midpoint of the concentration-response curve.
